The data set concerns the target T1, SauCas9 (Staphylococcus aureus, UniProt J7RUA5 1-1053).
T1 sequence: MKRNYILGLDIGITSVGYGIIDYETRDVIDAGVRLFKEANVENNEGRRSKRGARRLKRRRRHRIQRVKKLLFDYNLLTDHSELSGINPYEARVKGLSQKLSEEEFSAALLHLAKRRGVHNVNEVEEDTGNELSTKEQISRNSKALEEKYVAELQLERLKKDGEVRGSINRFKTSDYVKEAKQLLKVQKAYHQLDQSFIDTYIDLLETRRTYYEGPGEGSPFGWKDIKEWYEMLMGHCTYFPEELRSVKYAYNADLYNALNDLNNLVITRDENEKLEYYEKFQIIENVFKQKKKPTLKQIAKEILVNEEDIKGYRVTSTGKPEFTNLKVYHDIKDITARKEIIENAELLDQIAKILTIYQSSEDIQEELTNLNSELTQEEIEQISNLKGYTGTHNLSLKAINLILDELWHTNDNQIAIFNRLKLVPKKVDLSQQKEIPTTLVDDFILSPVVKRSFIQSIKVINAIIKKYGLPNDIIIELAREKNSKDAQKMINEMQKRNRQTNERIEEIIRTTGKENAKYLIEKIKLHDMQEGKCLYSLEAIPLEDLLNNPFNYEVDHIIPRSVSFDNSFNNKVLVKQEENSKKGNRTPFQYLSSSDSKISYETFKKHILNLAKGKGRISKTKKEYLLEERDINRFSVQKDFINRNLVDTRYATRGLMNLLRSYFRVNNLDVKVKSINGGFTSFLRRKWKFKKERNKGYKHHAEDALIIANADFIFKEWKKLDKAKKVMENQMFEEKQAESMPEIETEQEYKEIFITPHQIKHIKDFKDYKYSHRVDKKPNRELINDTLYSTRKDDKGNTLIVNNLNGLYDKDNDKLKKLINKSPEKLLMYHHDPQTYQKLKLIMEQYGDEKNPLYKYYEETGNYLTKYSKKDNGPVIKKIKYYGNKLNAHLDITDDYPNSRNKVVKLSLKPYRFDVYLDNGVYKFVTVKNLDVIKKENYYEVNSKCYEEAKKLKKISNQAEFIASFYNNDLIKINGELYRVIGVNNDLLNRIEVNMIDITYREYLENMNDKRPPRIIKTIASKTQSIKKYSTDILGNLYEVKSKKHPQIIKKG
Description: EMSA.

This note sets out measurements from article PMC7104187.

B1: EGFP sgRNA + target dsDNA (T) (mixed)
RNA: GCAAGGGCGAGGAGCUGUUCACGUUUUAGUACUCUGGAAACAGAAUCUACUAAAACAAGGCAAAAUGCCGUGUUUAUCUCGUCAACUUGUUGGCGAGAUUUUU
DNA 1: TGGTGAGCAAGGGCGAGGAGCTGTTCACCGGGGT
DNA 2: ACCCCGGTGAACAGCTCCTCGCCCTTGCTCACCA
Consider B1, for which the binding result was “binds”.
